Assay results reported in patent US20170281764A1 (JN BIOSCIENCES, published 2017).

Key:
[1] = target: T1, HA-tagged human TIGIT, wild type, transiently expressed on CHO-K1 cells (human, UniProt Q495A1 22-244); experiment: flow cytometry on CHO-K1 cells transiently expressing HA-tagged human TIGIT; wild type TIGIT
T1 sequence: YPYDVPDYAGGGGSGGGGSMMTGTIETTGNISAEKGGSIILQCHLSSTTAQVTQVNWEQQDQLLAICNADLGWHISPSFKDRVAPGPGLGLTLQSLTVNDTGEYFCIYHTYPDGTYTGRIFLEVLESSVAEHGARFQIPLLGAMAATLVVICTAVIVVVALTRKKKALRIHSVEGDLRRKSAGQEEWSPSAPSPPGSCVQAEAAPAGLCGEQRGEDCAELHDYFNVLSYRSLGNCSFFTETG
Description: (§1) For flow cytometry analysis of the anti-hTIGIT antibody binding epitope, HA-tagged human TIGIT proteins with or without single amino acid mutation were transiently transfected into CHO-K1 cells. After 24 hr, transfected cells were suspended in HBSS buffer (Thermo Fisher Scientific, Cat#14175095), and incubated with HuTIG1-IgG1.AA antibody at varying concentrations in 50 μL volume. After 1 hr incubation at 4° C., cells were washed and a second incubation with 50 μL Alexa488 conjugated anti-human IgG(H+L) secondary antibody (Thermo Fisher Scientific, Cat#A-11013) was performed to detect cells bound by antibody. Cells were incubated with an anti-HA antibody (Sigma, Cat# H7411) as a positive control, and non-transfected CHO-K1 cells were used as a negative control. The cells were analyzed on an Attune NxT Cytometer (Thermo Fisher Scientific) and the data were processed using FlowJo software. For each mutant, the saturating antibody binding MFI (mean fluorescence intensity) were normalized to 100% POC (percent of control), and no primary antibody binding control MFI were normalized to 0% POC. Data were then fit to a four parameter non-linear sigmoidal curve using GraphPad Prism 7 curve fitting using following formula: Y=Bottom+(Top−Bottom)/(1+10^{((Log EC}^₅₀^{-X)*HillSlope)}). […]

H55A = target: T2, H55A; experiment: flow cytometry titration on CHO-K1 cells transiently expressing the HA-tagged TIGIT mutant, Alexa488 anti-human IgG detection, four-parameter fit of percent of control, nM is from the concentration axis and paragraph 252
T2 construct: also called HA-tagged human TIGIT with mutation H55A, on CHO-K1 cells
T2 single chain: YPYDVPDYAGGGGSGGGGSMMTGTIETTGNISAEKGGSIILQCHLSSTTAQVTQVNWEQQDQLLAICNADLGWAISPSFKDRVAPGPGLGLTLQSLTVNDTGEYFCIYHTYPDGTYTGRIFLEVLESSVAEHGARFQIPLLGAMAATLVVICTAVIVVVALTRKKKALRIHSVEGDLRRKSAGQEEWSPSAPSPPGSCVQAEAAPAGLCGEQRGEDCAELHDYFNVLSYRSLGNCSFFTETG
Description: (§2) For flow cytometry analysis of the anti-hTIGIT antibody binding epitope, HA-tagged human TIGIT proteins with or without single amino acid mutation were transiently transfected into CHO-K1 cells. After 24 hr, transfected cells were suspended in HBSS buffer (Thermo Fisher Scientific, Cat#14175095), and incubated with HuTIG1-IgG1.AA antibody at varying concentrations in 50 μL volume. After 1 hr incubation at 4° C., cells were washed and a second incubation with 50 μL Alexa488 conjugated anti-human IgG(H+L) secondary antibody (Thermo Fisher Scientific, Cat#A-11013) was performed to detect cells bound by antibody. Cells were incubated with an anti-HA antibody (Sigma, Cat# H7411) as a positive control, and non-transfected CHO-K1 cells were used as a negative control. The cells were analyzed on an Attune NxT Cytometer (Thermo Fisher Scientific) and the data were processed using FlowJo software. For each mutant, the saturating antibody binding MFI (mean fluorescence intensity) were normalized to 100% POC (percent of control), and no primary antibody binding control MFI were normalized to 0% POC. Data were then fit to a four parameter non-linear sigmoidal curve using GraphPad Prism 7 curve fitting using following formula: Y=Bottom+(Top−Bottom)/(1+10^{((Log EC}^₅₀^{-X)*HillSlope)}).
(§3) All of these residues co-locate to one discrete region on the front ([…] structure of the TIGIT IgV extracellular domain (FIG. 28).

T34A = target: T3, T34A; experiment: as above
T3 construct: also called HA-tagged human TIGIT with mutation T34A, on CHO-K1 cells
T3 single chain: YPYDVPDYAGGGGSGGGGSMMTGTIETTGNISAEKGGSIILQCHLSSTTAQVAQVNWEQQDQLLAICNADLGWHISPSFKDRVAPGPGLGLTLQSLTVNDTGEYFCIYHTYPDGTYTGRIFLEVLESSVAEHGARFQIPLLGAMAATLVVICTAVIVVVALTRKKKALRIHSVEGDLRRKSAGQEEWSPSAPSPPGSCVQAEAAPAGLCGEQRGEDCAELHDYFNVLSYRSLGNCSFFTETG
Description: as §2, §3

E39A = target: T4, E39A; experiment: as above
T4 construct: also called HA-tagged human TIGIT with mutation E39A, on CHO-K1 cells
T4 single chain: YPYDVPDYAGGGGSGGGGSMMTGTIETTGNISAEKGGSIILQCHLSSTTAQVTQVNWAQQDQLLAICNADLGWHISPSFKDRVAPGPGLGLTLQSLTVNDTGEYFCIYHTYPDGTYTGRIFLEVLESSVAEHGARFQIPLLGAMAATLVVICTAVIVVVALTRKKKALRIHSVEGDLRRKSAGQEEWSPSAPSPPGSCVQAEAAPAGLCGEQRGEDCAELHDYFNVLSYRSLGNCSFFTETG
Description: as §2, §3

[2] = target: T5, HA-tagged human TIGIT with mutation N49A, on CHO-K1 cells (human, UniProt Q495A1 22-244); experiment: flow cytometry on CHO-K1 cells transiently expressing HA-tagged TIGIT mutant; N49A mutant
T5 sequence: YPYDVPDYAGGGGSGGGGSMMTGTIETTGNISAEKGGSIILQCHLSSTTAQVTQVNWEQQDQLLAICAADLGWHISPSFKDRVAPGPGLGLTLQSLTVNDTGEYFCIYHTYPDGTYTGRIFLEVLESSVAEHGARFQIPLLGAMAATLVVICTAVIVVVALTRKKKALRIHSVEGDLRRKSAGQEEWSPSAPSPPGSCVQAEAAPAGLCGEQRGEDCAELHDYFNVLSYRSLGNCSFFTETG
Description: as §1

[3] = target: T6, extracellular region of human TIGIT fused to FLAG and GPI (hTIGIT-GPI), on the surface of NS0 cells (human); experiment: flow cytometry on NS0-hTIGIT cells
T6 construct: The GPI signal is processed when the anchor is attached; also called NS0-hTIGIT cells
T6 chain: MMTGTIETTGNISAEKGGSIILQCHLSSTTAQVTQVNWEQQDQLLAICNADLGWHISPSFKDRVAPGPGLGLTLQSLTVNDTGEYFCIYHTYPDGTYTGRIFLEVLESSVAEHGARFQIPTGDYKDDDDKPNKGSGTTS
Description: Binding of HuTIG1-IgG1.AA to human TIGIT was also examined by flow cytometry. NS0-hTIGIT cells (8×10⁵ cells) were incubated in 160 μl of FACS Buffer (PBS containing 0.5% bovine serum albumin and 0.05% sodium azide) in the presence (or absence) of various concentrations of HuTIG1-IgG1.AA, starting at 10 μg/ml and serial 2-fold dilutions, for 20 min at 4° C. After washing with FACS Buffer, HuTIG1-IgG1.AA binding on NS0-hTIGIT cells were detected with PE-labeled goat anti-human IgG antibody in FACS Buffer. After incubation for 20 min and washing with FACS Buffer, the cells were subjected to flow cytometry using a FACScan flow cytometer (BD Biosciences, San Jose, Calif.) to obtain the mean channel fluorescence (MCF) at each antibody concentration. […] The EC₅₀ value was 60 ng/ml.

B1: HuTIG1-IgG1.AA (humanized IgG1/kappa form of TIG1, L234A/L235A) (antibody)
heavy: not shown
light: DIQMTQSPSSLSASVGDRVTITCRASKSISKYLAWYQQKPGKAPKLLIYSGSTLQSGVPSRFSGSGSGTDFTLTISSLQPEDFATYYCQQHNEYPWTFGGGTKVEIKRTVAAPSVFIFPPSDEQLKSGTASVVCLLNNFYPREAKVQWKVDNALQSGNSQESVTEQDSKDSTYSLSSTLTLSKADYEKHKVYACEVTHQGLSSPVTKSFNRGEC
notes: Mature full chains; also called humanized TIG1
With B1 the EC50 [1] was 1.28 nM, the EC50 (H55A) was 1.19 nM and the EC50 (T34A) was 0.577 nM. For the same binder, the EC50 (E39A) was 1.58 nM, the EC50 [2] was 17.7 nM and the EC50 [3] was 0.06 µg/mL.
